Measured values: the supplement of paper PMC10065799, “High-throughput profiling of sequence recognition by tyrosine kinases and SH2 domains using bacterial peptide display” (eLife, 2023)

What was measured:
[1] = target: Hck (UniProt P08631); assay: phosphorylation enrichment, bacterial display (enrichment ratio); higher = better substrate or ligand; peptides without Tyr show the background
[2] = target: FGFR3 (UniProt P22607); assay: as above
[3] = test system: c-Abl (mouse); assay: as above
[4] = target: FGFR1 (UniProt P11362); assay: as above
[5] = target: EPHB1 (UniProt P54762); assay: as above
[6] = target: Jak2 (UniProt O60674); assay: as above
[7] = target: Fes (UniProt P07332); assay: as above
[8] = target: Fyn (UniProt P06241); assay: as above
[9] = test system: c-Src; assay: as above
[10] = target: EPHB2 (UniProt P29323); assay: as above
[11] = test system: AncSZ; assay: as above
[12] = target: MERTK (UniProt Q12866); assay: as above
[13] = test system: Fer (mouse); assay: as above
[14] = target: c-Src SH2; assay: SH2 binding enrichment of the phosphorylated peptide, bacterial display (enrichment ratio); higher = better substrate or ligand; peptides without Tyr show the background
[15] = target: SHP2-C SH2; assay: as above
[16] = target: Grb2 SH2 (UniProt P62993); assay: as above
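Throughout, for SH2 binding enrichment of the phosphorylated peptide, bacterial display: peptide library displayed on the E. coli surface as eCPX fusions, selected cells deep-sequenced, score is each peptide's frequency after selection divided by its frequency in the input.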
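Throughout, for phosphorylation enrichment, bacterial display: 11-residue human phosphosite peptides and single-mutation variants displayed on the E. coli surface, counted by deep sequencing, each peptide's frequency after selection divided by its frequency in the unselected input library; frequency after pTyr selection over input frequency; kinase dosed for 20-30% of maximal phosphorylation in three min.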

Sequence of EPHB1 (P54762 whole entry, looked up): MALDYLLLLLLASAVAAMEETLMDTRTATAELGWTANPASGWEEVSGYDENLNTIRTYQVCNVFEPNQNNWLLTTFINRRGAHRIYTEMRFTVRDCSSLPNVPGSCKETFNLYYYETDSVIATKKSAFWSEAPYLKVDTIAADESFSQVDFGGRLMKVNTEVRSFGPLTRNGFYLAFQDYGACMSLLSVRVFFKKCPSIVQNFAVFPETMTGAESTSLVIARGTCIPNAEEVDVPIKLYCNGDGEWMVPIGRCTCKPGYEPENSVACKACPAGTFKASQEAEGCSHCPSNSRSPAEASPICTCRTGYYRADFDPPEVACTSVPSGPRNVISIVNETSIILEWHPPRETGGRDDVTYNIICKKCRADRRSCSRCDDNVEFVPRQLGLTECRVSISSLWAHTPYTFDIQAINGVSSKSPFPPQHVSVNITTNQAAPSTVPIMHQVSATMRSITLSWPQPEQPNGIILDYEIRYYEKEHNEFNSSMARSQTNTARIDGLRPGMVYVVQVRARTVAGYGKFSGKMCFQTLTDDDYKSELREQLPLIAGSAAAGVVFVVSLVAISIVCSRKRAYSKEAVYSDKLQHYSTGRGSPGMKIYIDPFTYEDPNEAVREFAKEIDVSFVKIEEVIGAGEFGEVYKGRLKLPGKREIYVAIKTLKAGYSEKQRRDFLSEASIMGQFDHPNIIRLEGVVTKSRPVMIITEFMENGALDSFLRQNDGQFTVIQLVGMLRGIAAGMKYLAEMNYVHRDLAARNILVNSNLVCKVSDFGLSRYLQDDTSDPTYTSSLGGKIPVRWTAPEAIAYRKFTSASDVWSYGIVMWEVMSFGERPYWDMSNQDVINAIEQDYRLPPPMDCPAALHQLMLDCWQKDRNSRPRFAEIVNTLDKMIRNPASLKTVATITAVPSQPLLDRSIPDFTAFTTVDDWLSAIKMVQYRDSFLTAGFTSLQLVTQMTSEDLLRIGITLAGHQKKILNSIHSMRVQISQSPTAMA
Sequence of FGFR3 (P22607 whole entry, looked up): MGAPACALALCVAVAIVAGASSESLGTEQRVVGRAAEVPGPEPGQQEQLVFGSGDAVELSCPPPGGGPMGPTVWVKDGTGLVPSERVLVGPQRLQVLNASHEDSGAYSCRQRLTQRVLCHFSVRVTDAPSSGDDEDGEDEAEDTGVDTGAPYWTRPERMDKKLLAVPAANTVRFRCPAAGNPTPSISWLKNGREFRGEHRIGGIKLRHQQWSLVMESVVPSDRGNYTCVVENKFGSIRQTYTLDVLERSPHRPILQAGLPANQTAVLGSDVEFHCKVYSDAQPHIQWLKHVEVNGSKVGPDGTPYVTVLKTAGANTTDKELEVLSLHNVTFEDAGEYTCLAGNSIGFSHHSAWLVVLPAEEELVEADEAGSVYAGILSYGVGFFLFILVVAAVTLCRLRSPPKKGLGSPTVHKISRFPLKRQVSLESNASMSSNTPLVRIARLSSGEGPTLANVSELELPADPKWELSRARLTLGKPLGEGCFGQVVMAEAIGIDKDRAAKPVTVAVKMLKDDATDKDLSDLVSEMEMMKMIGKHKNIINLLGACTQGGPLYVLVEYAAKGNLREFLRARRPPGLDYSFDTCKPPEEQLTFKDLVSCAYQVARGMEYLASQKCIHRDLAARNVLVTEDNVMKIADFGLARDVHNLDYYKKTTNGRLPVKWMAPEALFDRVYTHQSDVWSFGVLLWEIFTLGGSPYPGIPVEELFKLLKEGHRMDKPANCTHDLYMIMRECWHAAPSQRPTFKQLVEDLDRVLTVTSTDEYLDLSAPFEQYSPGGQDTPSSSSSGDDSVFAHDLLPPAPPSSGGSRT
Sequence of MERTK (Q12866 whole entry, looked up): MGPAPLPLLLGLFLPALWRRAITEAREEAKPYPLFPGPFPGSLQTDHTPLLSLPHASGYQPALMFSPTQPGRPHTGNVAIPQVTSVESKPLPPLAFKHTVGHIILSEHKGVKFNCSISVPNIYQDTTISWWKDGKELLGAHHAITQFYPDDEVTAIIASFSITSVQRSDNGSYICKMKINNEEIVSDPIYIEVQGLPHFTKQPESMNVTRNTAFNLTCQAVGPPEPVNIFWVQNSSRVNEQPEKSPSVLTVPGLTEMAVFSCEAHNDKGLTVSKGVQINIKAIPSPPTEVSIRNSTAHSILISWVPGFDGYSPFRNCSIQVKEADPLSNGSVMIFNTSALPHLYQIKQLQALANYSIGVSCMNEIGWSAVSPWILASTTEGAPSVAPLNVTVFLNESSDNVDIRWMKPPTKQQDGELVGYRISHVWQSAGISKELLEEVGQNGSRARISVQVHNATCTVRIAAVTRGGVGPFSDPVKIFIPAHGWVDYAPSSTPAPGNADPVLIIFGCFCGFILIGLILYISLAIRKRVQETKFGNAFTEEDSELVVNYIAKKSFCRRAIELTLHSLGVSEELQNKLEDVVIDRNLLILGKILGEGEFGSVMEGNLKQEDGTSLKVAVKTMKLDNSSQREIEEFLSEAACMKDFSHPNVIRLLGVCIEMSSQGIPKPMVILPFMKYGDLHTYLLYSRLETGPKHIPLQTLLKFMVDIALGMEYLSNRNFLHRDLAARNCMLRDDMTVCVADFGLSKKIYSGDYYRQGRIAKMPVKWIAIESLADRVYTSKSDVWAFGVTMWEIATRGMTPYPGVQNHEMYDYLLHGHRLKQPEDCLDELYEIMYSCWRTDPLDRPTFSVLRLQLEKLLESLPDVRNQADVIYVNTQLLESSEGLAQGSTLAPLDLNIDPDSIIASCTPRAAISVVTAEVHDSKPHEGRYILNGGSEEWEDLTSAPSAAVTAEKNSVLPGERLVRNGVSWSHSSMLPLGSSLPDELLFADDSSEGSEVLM
Sequence of Fes (P07332 whole entry, looked up): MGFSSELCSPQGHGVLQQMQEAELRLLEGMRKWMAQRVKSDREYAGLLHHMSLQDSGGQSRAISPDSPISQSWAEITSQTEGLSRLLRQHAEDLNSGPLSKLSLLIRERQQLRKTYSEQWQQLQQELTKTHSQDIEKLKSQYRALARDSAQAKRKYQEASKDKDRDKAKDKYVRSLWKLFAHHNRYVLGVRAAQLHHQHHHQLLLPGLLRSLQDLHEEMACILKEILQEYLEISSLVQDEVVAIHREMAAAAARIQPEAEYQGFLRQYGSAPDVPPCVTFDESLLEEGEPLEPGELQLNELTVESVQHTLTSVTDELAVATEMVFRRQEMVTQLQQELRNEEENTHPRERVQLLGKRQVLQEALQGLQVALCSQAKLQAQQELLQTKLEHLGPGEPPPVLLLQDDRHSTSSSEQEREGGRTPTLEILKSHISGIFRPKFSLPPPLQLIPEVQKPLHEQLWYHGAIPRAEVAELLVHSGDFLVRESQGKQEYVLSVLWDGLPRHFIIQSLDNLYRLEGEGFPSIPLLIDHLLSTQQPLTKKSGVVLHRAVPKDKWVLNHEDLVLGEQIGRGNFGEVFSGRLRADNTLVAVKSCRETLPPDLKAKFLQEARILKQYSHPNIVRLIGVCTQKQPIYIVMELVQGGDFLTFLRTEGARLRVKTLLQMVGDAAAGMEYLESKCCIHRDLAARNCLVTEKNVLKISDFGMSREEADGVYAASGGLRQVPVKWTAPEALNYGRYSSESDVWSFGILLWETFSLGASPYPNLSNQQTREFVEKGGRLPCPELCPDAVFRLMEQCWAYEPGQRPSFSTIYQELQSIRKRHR
Sequence of EPHB2 (P29323 whole entry, looked up): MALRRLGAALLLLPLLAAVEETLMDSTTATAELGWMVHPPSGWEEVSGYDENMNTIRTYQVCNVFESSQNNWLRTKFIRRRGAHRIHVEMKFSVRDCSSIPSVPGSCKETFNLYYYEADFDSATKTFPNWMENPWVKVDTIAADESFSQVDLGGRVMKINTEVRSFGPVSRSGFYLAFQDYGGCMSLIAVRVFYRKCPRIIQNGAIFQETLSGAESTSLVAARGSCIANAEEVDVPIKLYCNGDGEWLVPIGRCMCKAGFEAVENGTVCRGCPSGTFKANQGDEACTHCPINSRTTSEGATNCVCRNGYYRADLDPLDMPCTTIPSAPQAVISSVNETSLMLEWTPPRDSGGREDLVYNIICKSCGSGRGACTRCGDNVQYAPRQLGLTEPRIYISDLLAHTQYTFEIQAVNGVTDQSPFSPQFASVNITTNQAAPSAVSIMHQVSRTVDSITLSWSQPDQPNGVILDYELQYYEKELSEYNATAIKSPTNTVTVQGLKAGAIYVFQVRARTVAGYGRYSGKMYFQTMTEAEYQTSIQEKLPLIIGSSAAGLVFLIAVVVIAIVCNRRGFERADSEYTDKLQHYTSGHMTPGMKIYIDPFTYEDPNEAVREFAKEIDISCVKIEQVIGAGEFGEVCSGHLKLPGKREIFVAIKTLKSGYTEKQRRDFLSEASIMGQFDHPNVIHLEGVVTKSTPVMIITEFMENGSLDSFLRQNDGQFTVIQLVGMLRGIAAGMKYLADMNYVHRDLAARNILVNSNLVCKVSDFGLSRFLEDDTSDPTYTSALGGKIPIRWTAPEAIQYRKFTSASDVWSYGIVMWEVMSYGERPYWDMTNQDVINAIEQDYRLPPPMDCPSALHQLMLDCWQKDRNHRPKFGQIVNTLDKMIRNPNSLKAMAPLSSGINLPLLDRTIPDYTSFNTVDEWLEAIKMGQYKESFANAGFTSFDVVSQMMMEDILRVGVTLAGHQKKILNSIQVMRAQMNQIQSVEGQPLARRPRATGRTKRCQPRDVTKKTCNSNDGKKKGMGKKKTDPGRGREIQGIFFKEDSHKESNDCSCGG
Sequence of Grb2 SH2 (P62993 whole entry, looked up, the tested form may be a part): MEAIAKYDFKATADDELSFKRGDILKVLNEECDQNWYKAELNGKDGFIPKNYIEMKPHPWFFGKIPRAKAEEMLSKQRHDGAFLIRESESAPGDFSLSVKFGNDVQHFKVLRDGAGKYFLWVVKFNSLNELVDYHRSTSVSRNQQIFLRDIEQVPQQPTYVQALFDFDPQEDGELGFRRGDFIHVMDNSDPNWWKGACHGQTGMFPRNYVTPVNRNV

Row | Sequence | phosphorylation enrichment [1] | phosphorylation enrichment [2] | phosphorylation enrichment [3] | phosphorylation enrichment [4] | phosphorylation enrichment [5] | phosphorylation enrichment [6] | phosphorylation enrichment [7] | phosphorylation enrichment [8] | phosphorylation enrichment [9] | phosphorylation enrichment [10] | phosphorylation enrichment [11] | phosphorylation enrichment [12] | phosphorylation enrichment [13] | SH2 binding enrichment [14] | SH2 binding enrichment [15] | SH2 binding enrichment [16]
1 | QTEGEYSSLEH [IDH3B_Y171] | 1.04 | 0.874 | 1.94 | 0.995 | 0.91 | 1.64 | 1.82 | 0.886 | 1.26 | 1.01 | 1.79 | 0.556 | 0.836 | 0.721 | 0.634 | 0.71
2 | QWPGPYDRPGA [HNRNPH2_Y210_R206W] | 0.73 | 0.798 | 0.681 | 0.602 | 0.416 | 0.719 | 0.928 | 0.636 | 0.54 | 0.513 | 0.646 | 0.541 | 0.858 | 1.33 | 0.789 | 0.885
3 | RAIDMYLMGCF [GABRB2_Y308_K303R] | 0.888 | 1.19 | 1.58 | 0.777 | 0.848 | 1.83 | 1.79 | 0.907 | 1.29 | 0.706 | 1.87 | 0.601 | 0.799 | 0.332 | 0.572 | 0.886
4 | RAIELYNDKEK [OTULIN_Y244] | 1.08 | 0.924 | 0.845 | 0.923 | 0.73 | 1.69 | 1.51 | 0.558 | 0.747 | 0.821 | 1.52 | 0.54 | 0.657 | 0.467 | 0.746 | 0.735
5 | RAILDYIASKY [GSTA3_Y74_N73D] | 0.471 | 0.661 | 0.616 | 0.512 | 0.456 | 0.718 | 0.761 | 0.564 | 0.376 | 0.646 | 0.867 | 0.473 | 0.665 | 0.746 | 0.872 | 1.06
6 | RALRHYYKLNI [ETV6_Y401] | 0.95 | 1.03 | 0.371 | 1.46 | 1.29 | 0.504 | 0.606 | 0.685 | 0.201 | 0.415 | 1.07 | 0.763 | 0.402 | 1.47 | 1.17 | 2.09
7 | RARIRYAQEHD [NSD1_Y1987] | 0.85 | 0.625 | 0.706 | 0.689 | 0.727 | 0.691 | 0.885 | 0.757 | 0.636 | 1.19 | 1.12 | 0.627 | 0.737 | 0.572 | 0.536 | 0.663
8 | RASDFYSQQMA [GBP6_Y334_A331S_YF] | 0.539 | 0.605 | 0.738 | 0.444 | 0.708 | 0.688 | 0.682 | 0.423 | 0.675 | 0.683 | 0.755 | 0.957 | 0.37 | 0.649 | 0.575 | 0.739
9 | RASQEYHIVKK [PDZD2_Y557_S552R] | 0.607 | 0.784 | 0.841 | 0.881 | 0.754 | 1.06 | 1.08 | 0.289 | 0.643 | 0.471 | 0.772 | 0.356 | 0.571 | 1.11 | 1.03 | 1.01
10 | RAYRHYLLKQK [SCN2A_Y1919_R1918H] | 0.414 | 0.607 | 0.376 | 0.31 | 0.334 | 0.47 | 0.597 | 0.632 | 0.583 | 0.602 | 0.52 | 0.571 | 0.332 | 0.442 | 0.51 | 0.677
11 | RDSQIYAVDFE [MRPS34_Y34_L33I_YF] | 2.83 | 0.656 | 0.959 | 0.664 | 1.08 | 1.15 | 1.22 | 6.32 | 7.72 | 1.17 | 1.66 | 5.64 | 0.717 | 0.688 | 0.806 | 0.88
12 | RDSQLYAVDFE [MRPS34_Y34_YF] | 0.908 | 0.788 | 0.876 | 0.53 | 1.04 | 1.09 | 1.58 | 0.993 | 1.35 | 0.869 | 1.49 | 1.9 | 0.728 | 0.701 | 1.07 | 1.37
13 | RDSQLYAVDYE [MRPS34_Y34] | 1.41 | 1.38 | 0.966 | 1.08 | 0.904 | 2.07 | 2.77 | 1.33 | 1.63 | 1.05 | 2.1 | 2.12 | 0.871 | 0.545 | 0.631 | 0.69
14 | REAAAYPHGRL [AGXT_Y297_L298P] | 0.404 | 0.41 | 0.415 | 0.25 | 0.254 | 0.704 | 0.46 | 0.274 | 0.329 | 0.442 | 0.516 | 0.32 | 0.192 | 0.55 | 0.739 | 0.989
15 | REEIKYMLWLS [OTC_Y55_G50R] | 0.786 | 1.4 | 0.944 | 0.961 | 0.697 | 1.15 | 1.58 | 0.661 | 0.474 | 0.992 | 1.23 | 0.734 | 0.955 | 0.502 | 0.775 | 0.642
16 | REESTYLPLTS [ICAM3_Y527] | 3.17 | 1.51 | 0.674 | 1.19 | 0.88 | 1.41 | 1.75 | 1.35 | 2.39 | 0.894 | 1.62 | 0.803 | 1 | 0.787 | 0.811 | 0.961
17 | RESSGYLRLAF [MEP1A_Y481] | 0.872 | 1.25 | 1.23 | 0.593 | 1.08 | 2.85 | 1.8 | 0.732 | 1.11 | 1.21 | 1.46 | 1.07 | 0.93 | 0.991 | 5.52 | 1.18
18 | RETLTYAQAQR [BRD1_Y33] | 0.746 | 0.525 | 0.963 | 0.541 | 0.383 | 0.694 | 0.737 | 0.584 | 0.623 | 0.478 | 0.702 | 0.529 | 0.42 | 0.753 | 0.819 | 0.904
19 | RFLERDIFNRE [HLA-DPB1_Y57_Y57D_YF] | 0.771 | 1.1 | 1.29 | 0.682 | 0.769 | 1.69 | 1.01 | 0.518 | 0.584 | 0.569 | 1.17 | 0.548 | 1.01 | 0.565 | 0.707 | 0.927
20 | RFWPRYVKVGS [NOG_Y172] | 0.726 | 0.751 | 0.691 | 0.487 | 0.532 | 0.622 | 0.624 | 0.68 | 0.535 | 0.478 | 1.36 | 0.46 | 0.726 | 0.446 | 0.429 | 0.701
21 | RGDCMYAPLLG [AR_Y269] | 10.9 | 1.83 | 5.89 | 3.08 | 7.23 | 0.743 | 0.885 | 8.2 | 5.61 | 8.4 | 0.898 | 10.4 | 4.16 | 1.04 | 0.739 | 0.98
22 | RGDIFYTSKLW [AKR1C3_Y81_E77G] | 0.46 | 1.09 | 0.889 | 0.923 | 0.964 | 1.33 | 1.59 | 0.611 | 0.735 | 0.963 | 1.72 | 0.803 | 0.648 | 0.55 | 0.888 | 0.919
23 | RGDVIYKGFED [NFU1_Y194_G189R] | 1.07 | 0.699 | 0.445 | 0.514 | 0.622 | 0.815 | 1.03 | 4.47 | 2.03 | 0.672 | 0.81 | 0.481 | 0.681 | 0.488 | 0.634 | 0.797
24 | RGFDTYFGYLL [ARSB_Y165] | 7.09 | 3.3 | 1.56 | 3.58 | 5.14 | 5.83 | 1.63 | 8.58 | 6.46 | 8.25 | 2.15 | 4.01 | 3.59 | 0.417 | 1.42 | 1
25 | RGKDSYETSQL [SPP1_Y225] | 0.412 | 0.697 | 0.313 | 0.632 | 0.552 | 0.643 | 0.913 | 0.484 | 0.449 | 0.529 | 0.681 | 0.5 | 0.594 | 0.482 | 0.381 | 0.698
26 | RGLQVYHKRNA [LRP2_Y2010_R2012K] | 0.59 | 0.642 | 0.561 | 0.433 | 0.45 | 0.654 | 0.985 | 0.496 | 0.497 | 0.468 | 0.545 | 0.496 | 0.517 | 0.567 | 0.539 | 0.943
27 | RIPFRYPKEFQ [IDS_Y234_H229R] | 1.07 | 1.07 | 0.998 | 0.78 | 0.571 | 1.48 | 1.14 | 0.56 | 1.1 | 0.646 | 0.946 | 0.637 | 0.627 | 0.414 | 0.531 | 0.447
28 | RIVEIYSRSLQ [GCH1_Y175_R178S] | 2.61 | 1.67 | 1.07 | 0.753 | 1.03 | 0.895 | 1.95 | 1.52 | 1.28 | 0.985 | 1.43 | 1.17 | 0.87 | 0.485 | 0.701 | 0.944
29 | RLDRSYSYSYS [PEAR1_Y890] | 0.5 | 0.42 | 0.359 | 0.594 | 0.443 | 0.374 | 0.597 | 0.334 | 0.42 | 0.434 | 0.655 | 0.569 | 0.467 | 1.41 | 1.12 | 0.782
